Results on 120 sequences are retold here after the supplement of paper PMC10126150.

± gives the standard deviation of the averaged measurements.

The test system of the data set is ATP. Description: switch fluorescence ratio, 500 uM ATP over buffer (Cy3 cluster intensity, sum of 5 cycles each) (fold (ratio)); higher = stronger signal-on switching upon ATP binding; sequences stand for … in TCGTCGGCAGCGTCAGATGTGTATAAGAGACAGTTTTTTTTTTTTTTTTTTTTTTTTT…TC. The settings on record: aptamer strand: ATP DNA aptamer (quencher-CACCTGGGGGAGTATTGCGGAGGAAGG + anchor), 100 nM annealed; ATP concentration: 500 uM. In outline: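 The fluorescence ratio divides summed target-cycle Cy3 intensity by summed buffer-cycle Cy3 intensity for each cluster and is averaged per switch-domain sequence. Cy3-labelled switching-strand clusters on a modified Illumina MiSeq flow-cell were annealed to 100 nM quencher-labelled ATP aptamer, then imaged in selection buffer and again after 15 min with 500 uM ATP at 22 °C. Five such cycles were run, with NaOH stripping and re-annealing between them, and clusters outside 100-1000 RFU were excluded.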
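Also: ATP exposure 15 min at 22 °C before imaging.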

For TGCGTTAAGG, the switch fluorescence ratio stood at 1 ± 0.031.

In the case of TGCGTTATCG, the switch fluorescence ratio is 1.025 ± 0.0072.

In the case of TGCGTTCTGG, the switch fluorescence ratio stood at 1.048 ± 0.007.

As to TGCTAACTCG, the switch fluorescence ratio amounted to 1 ± 0.018.

Consider TGCTAACTTT, for which the switch fluorescence ratio amounted to 0.999 ± 0.052.

Turning to TGCTAATTGA, the switch fluorescence ratio worked out at 1.01 ± 0.037.

TGCTACAGTT: the switch fluorescence ratio was 0.985 ± 0.024.

Turning to TGCTACCGGG, the switch fluorescence ratio is 1.058 ± 0.0016.

For the sequence TGCTAGGCTA, the switch fluorescence ratio amounted to 1.02 ± 0.025.

For TGCTAGGGGC, the switch fluorescence ratio worked out at 1.07 ± 0.036.

Regarding TGCTATATTT, the switch fluorescence ratio turned out to be 1.01 ± 0.024.

Turning to TGCTATTGGT, the switch fluorescence ratio turned out to be 1.03 ± 0.035.

Consider TGCTCATTTT, for which the switch fluorescence ratio worked out at 0.992 ± 0.032.

With TGCTCGGGCA, the switch fluorescence ratio was found to be 1.014 ± 0.0072.

Take TGCTCGGGGA: the switch fluorescence ratio came to 1.021 ± 0.0023.

TGCTGACGGT: the switch fluorescence ratio was determined as 0.993 ± 0.029.

TGCTGAGACA: the switch fluorescence ratio turned out to be 1.01 ± 0.012.

Regarding TGCTGCAAAG, the switch fluorescence ratio is 0.9943 ± 0.0049.

For TGCTGGTAGC, the switch fluorescence ratio was found to be 0.995 ± 0.042.

Take TGCTGGTCGG: the switch fluorescence ratio was determined as 0.985 ± 0.035.

With TGCTGGTGCC, the switch fluorescence ratio came out at 1.02 ± 0.013.

Regarding TGCTGTGGGG, the switch fluorescence ratio was 1 ± 0.029.

TGCTTAAGTT: the switch fluorescence ratio was found to be 0.999 ± 0.021.

Regarding TGCTTACAAA, the switch fluorescence ratio turned out to be 1.01 ± 0.027.

Turning to TGCTTACCCA, the switch fluorescence ratio turned out to be 1.03 ± 0.017.

With TGCTTAGGAA, the switch fluorescence ratio came to 1.005 ± 0.0072.

In the case of TGCTTAGTTC, the switch fluorescence ratio was determined as 0.959 ± 0.046.

Take TGCTTCATTT: the switch fluorescence ratio turned out to be 1.023 ± 0.0018.

Take TGCTTCGACG: the switch fluorescence ratio was determined as 0.9996 ± 0.0012.

Regarding TGCTTCTATA, the switch fluorescence ratio was found to be 1.01 ± 0.051.

As for TGCTTGAA, the switch fluorescence ratio worked out at 0.962 ± 0.021.

In the case of TGCTTGATGG, the switch fluorescence ratio worked out at 0.9851 ± 0.0044.

TGCTTGCGGA: the switch fluorescence ratio came to 1.02 ± 0.023.

Take TGCTTGTTCG: the switch fluorescence ratio amounted to 1.029 ± 0.0097.

Consider TGCTTTAAGG, for which the switch fluorescence ratio is 1.02 ± 0.04.

Consider TGCTTTAAGT, for which the switch fluorescence ratio came to 0.9912 ± 0.0029.

For the sequence TGCTTTCCTT, the switch fluorescence ratio came out at 1.035 ± 0.0034.

With TGCTTTGCCT, the switch fluorescence ratio worked out at 1.03 ± 0.013.

For TGCTTTTATT, the switch fluorescence ratio stood at 1 ± 0.022.

For the sequence TGCTTTTGTC, the switch fluorescence ratio turned out to be 1.01 ± 0.078.

Turning to TGCTTTTTAG, the switch fluorescence ratio turned out to be 0.988 ± 0.029.

Turning to TGCTTTTTTT, the switch fluorescence ratio came out at 0.966 ± 0.024.

With TGGAAAAGAT, the switch fluorescence ratio was 0.995 ± 0.016.

Take TGGAAAAGCG: the switch fluorescence ratio is 0.976 ± 0.012.

For TGGAAAGGCG, the switch fluorescence ratio came out at 1.04 ± 0.06.

Regarding TGGAAATAAA, the switch fluorescence ratio came to 0.9968 ± 0.0051.

As to TGGAAATTTG, the switch fluorescence ratio is 1.01 ± 0.036.

Take TGGAAGATGT: the switch fluorescence ratio is 1.02 ± 0.03.

For the sequence TGGAAGGTTT, the switch fluorescence ratio was 1.08 ± 0.11.

As to TGGAATAGAA, the switch fluorescence ratio turned out to be 1.01 ± 0.02.

As to TGGAATAGGG, the switch fluorescence ratio was determined as 0.992 ± 0.011.

With TGGAATGGAA, the switch fluorescence ratio was 0.9717 ± 0.0076.

With TGGAATTGGA, the switch fluorescence ratio was found to be 1.03 ± 0.093.

As to TGGAATTTAA, the switch fluorescence ratio was 0.984 ± 0.017.

Regarding TGGACGAGGG, the switch fluorescence ratio came to 0.992 ± 0.041.

Turning to TGGAGAAATT, the switch fluorescence ratio turned out to be 0.952 ± 0.13.

Consider TGGAGAAGGC, for which the switch fluorescence ratio was 0.977 ± 0.12.

Regarding TGGAGATAGG, the switch fluorescence ratio is 0.994 ± 0.016.

TGGAGATTTT: the switch fluorescence ratio worked out at 1.015 ± 0.0062.

On to TGGAGCCAGG, for which the switch fluorescence ratio stood at 1.08 ± 0.064.

TGGAGCCTAT: the switch fluorescence ratio is 0.991 ± 0.031.

Turning to TGGAGCTGGG, the switch fluorescence ratio stood at 1.31 ± 0.5.

Turning to TGGAGGGGTA, the switch fluorescence ratio came out at 1.05 ± 0.053.

On to TGGAGGTAGT, for which the switch fluorescence ratio came out at 0.993 ± 0.033.

With TGGAGGTTTT, the switch fluorescence ratio stood at 1.07 ± 0.045.

Regarding TGGAGTAGC, the switch fluorescence ratio amounted to 1.07 ± 0.078.

As to TGGAGTCCAT, the switch fluorescence ratio is 1.026 ± 0.0098.

For TGGAGTGCTT, the switch fluorescence ratio stood at 0.983 ± 0.0022.

As for TGGAGTGGAG, the switch fluorescence ratio stood at 0.989 ± 0.023.

Consider TGGATAAGGA, for which the switch fluorescence ratio came out at 0.983 ± 0.013.

On to TGGATAATCG, for which the switch fluorescence ratio was 0.996 ± 0.024.

On to TGGATAATTT, for which the switch fluorescence ratio worked out at 0.9962 ± 0.0084.

Turning to TGGATATGTG, the switch fluorescence ratio was found to be 1.01 ± 0.018.

Take TGGATCTGCC: the switch fluorescence ratio came out at 1.036 ± 0.0056.

On to TGGATCTGCG, for which the switch fluorescence ratio turned out to be 1.01 ± 0.023.

With TGGATGAGGG, the switch fluorescence ratio is 0.99 ± 0.03.

Regarding TGGATGGGAG, the switch fluorescence ratio turned out to be 0.9922 ± 0.0028.

Turning to TGGATGGGCT, the switch fluorescence ratio stood at 1.03 ± 0.037.

Take TGGATGGGGC: the switch fluorescence ratio turned out to be 1 ± 0.012.

For TGGATGGTGG, the switch fluorescence ratio was found to be 0.9906 ± 0.0024.

On to TGGATTAGGG, for which the switch fluorescence ratio stood at 1 ± 0.023.

As to TGGATTAGTT, the switch fluorescence ratio stood at 0.96734 ± 0.00041.

Take TGGATTGTGT: the switch fluorescence ratio was determined as 0.9735 ± 0.0032.

With TGGATTTACT, the switch fluorescence ratio is 1.01 ± 0.031.

Regarding TGGATTTTTT, the switch fluorescence ratio came out at 0.996 ± 0.036.

Take TGGCAGGAAT: the switch fluorescence ratio was found to be 0.9766 ± 0.0014.

For the sequence TGGCAGGGAT, the switch fluorescence ratio was determined as 1.02 ± 0.067.

In the case of TGGCAGGTTT, the switch fluorescence ratio was found to be 1.015 ± 0.01.

In the case of TGGCATGTGT, the switch fluorescence ratio was determined as 0.986 ± 0.033.

Consider TGGCCGGGGG, for which the switch fluorescence ratio stood at 1 ± 0.02.

In the case of TGGCCTAATG, the switch fluorescence ratio came out at 0.965 ± 0.013.

As for TGGCCTGGGG, the switch fluorescence ratio turned out to be 0.979 ± 0.025.

As for TGGCGAAGAG, the switch fluorescence ratio amounted to 0.999 ± 0.011.

As for TGGCGCACAA, the switch fluorescence ratio is 1.07 ± 0.013.

For the sequence TGGCGCCCGT, the switch fluorescence ratio turned out to be 1.08 ± 0.11.

TGGCGCCCTG: the switch fluorescence ratio was determined as 0.998 ± 0.069.

As for TGGCGGAAAG, the switch fluorescence ratio is 0.977 ± 0.025.

With TGGCGGAATT, the switch fluorescence ratio is 1.02 ± 0.02.

Turning to TGGCGGCCGA, the switch fluorescence ratio amounted to 0.996 ± 0.021.

As for TGGCGGGATA, the switch fluorescence ratio stood at 1.009 ± 0.0013.

For TGGCGGGGAG, the switch fluorescence ratio was 0.998 ± 0.021.

As to TGGCGGGGGT, the switch fluorescence ratio came out at 0.981 ± 0.012.

In the case of TGGCGGTGAC, the switch fluorescence ratio is 1.02 ± 0.01.

On to TGGCGTAGTA, for which the switch fluorescence ratio was found to be 1.01 ± 0.051.

For TGGCGTCTTA, the switch fluorescence ratio was 0.9875 ± 0.0033.

For the sequence TGGCGTTGTG, the switch fluorescence ratio turned out to be 0.9928 ± 0.0017.

As for TGGCTAGATA, the switch fluorescence ratio amounted to 0.973 ± 0.041.

As for TGGCTATGCG, the switch fluorescence ratio came to 0.969 ± 0.029.

Take TGGCTCAGTG: the switch fluorescence ratio was determined as 1.024 ± 0.0018.

As to TGGCTGGTGT, the switch fluorescence ratio turned out to be 1.02 ± 0.08.

With TGGCTGTCTT, the switch fluorescence ratio came out at 0.97 ± 0.13.

In the case of TGGCTTAACG, the switch fluorescence ratio came out at 0.961 ± 0.0041.

For the sequence TGGCTTTTAA, the switch fluorescence ratio came to 1.013 ± 0.007.

On to TGGGAAAATC, for which the switch fluorescence ratio amounted to 1.63 ± 0.81.

As to TGGGAAAGGG, the switch fluorescence ratio was found to be 1.01 ± 0.036.

With TGGGAAATAG, the switch fluorescence ratio came out at 0.9957 ± 0.0041.

For the sequence TGGGAAATGG, the switch fluorescence ratio was found to be 1 ± 0.024.

For TGGGAACCAG, the switch fluorescence ratio amounted to 0.999 ± 0.015.

Consider TGGGAACGCG, for which the switch fluorescence ratio stood at 1.003 ± 0.0076.

Take TGGGAAGAAT: the switch fluorescence ratio worked out at 0.99323 ± 0.00037.
